# Reference: US20170274068A1, “IMMUNOLOGICAL REAGENT” (priority 2014, published 2017)
# B1: OVA: protein antigen OVA used as model antigen, alone (protein, UniProt P01012 2-386, looked up)
# Ovalbumin: GSIGAASMEFCFDVFKELKVHHANENIFYCPIAIMSALAMVYLGAKDSTRTQINKVVRFDKLPGFGDSIEAQCGTSVNVHSSLRDILNQITKPNDVYSFSLASRLYAEERYPILPEYLQCVKELYRGGLEPINFQTAADQARELINSWVESQTNGIIRNVLQPSSVDSQTAMVLVNAIVFKGLWEKAFKDEDTQAMPFRVTEQESKPVQMMYQIGLFRVASMASEKMKILELPFASGTMSMLVLLPDEVSGLEQLESIINFEKLTEWTSSNVMEERKIKVYLPRMKMEEKYNLTSVLMAMGITDVFSSSANLSGISSAESLKISQAVHAAHAEINEAGREVVGSAEAGVDAASVSEEFRADHPFLFCIKHIATNAVLFFGRCVSP
# Experiments:
# [1] = Optical density of antigen and lipopeptide formulations (450 nm); format: physicochemical; conditions: constant OVA (25 μg) plus increasing lipopeptide, up to 3-fold molar excess, PBS
# Experimental: Optical density of antigen and lipopeptide formulations. A constant amount (0.55 nmol; 25 μg) of OVA was mixed with each lipopeptide at different protein:lipopeptide molar ratios in 50 μl of PBS in a 96-well plate at room temperature. The optical density of these solutions was then measured on a plate reader at a wavelength of 450 nm.
# CD8+CD45.1+ OT-I cells = assay: In vivo proliferative T cell responses, adoptive transfer of CFSE labelled OT-I cells; design: species or system C57BL/6 mice; conditions: 3 μg OVA alone or with 3-fold molar excess lipopeptide, s.c., inguinal LNs day 3
# Source text: In vivo proliferative T cell responses. […] Inguinal LNs were obtained 3 days after vaccination and CFSE intensities of CD8^+CD45.1^+ cells measured by flow cytometry.
# To characterise early events associated with vaccine-mediated induction of CD8^+ T cell responses, the present inventors utilised the adoptive transfer of CD8^+ T cells from OTI transgenic mice that express the Vα2 TCR specific for OVA257. […] Analysis of OTI T cells in the draining lymph nodes of vaccinated animals was then carried out 3 days later and the loss of CFSE in these cells was used as an indicator of T cell proliferation.
# [2] = Dynamic light scattering analysis of vaccine formulations; format: physicochemical
# Experimental: FIG. 3. Particle size distribution of antigen and lipopeptide formulations. OVA (25 μg) was mixed with each lipopeptide at a 1:3 molar ratio of protein to lipopeptide in […] of PBS in a 96-well plate at room temperature. The size distribution of particulates in samples were then analysed by dynamic light scattering with each profile depicting the hydrodynamic radius (nm) of particles detected versus the percentage intensity of scattered light (% intensity).
# To determine the size of complexes formed between OVA and each lipopeptide, we analysed these formulations by dynamic light scattering.
molecule,measurement,setting,value
CCCCCCCCCCCCCCCC(=O)OCC(CSCC(N)C(=O)N[C@@H](CO)C(=O)N[C@@H](CO)C(=O)NCCCC[C@H](NC(=O)[C@H](CCCCNC(=O)[C@H](CCCCNC(=O)[C@@H](N)CCCNC(=N)N)NC(=O)[C@@H](N)CCCNC(=N)N)NC(=O)[C@H](CCCCNC(=O)[C@@H](N)CCCNC(=N)N)NC(=O)[C@@H](N)CCCNC(=N)N)C(N)=O)OC(=O)CCCCCCCCCCCCCCC (some centres unmarked) [R4Pam2Cys],"optical density (OD) of solutions, solubility",[1],increase in OD
"OVA: protein antigen OVA used as model antigen, alone",division of T cells (percentage of OT-I cells which proliferated),CD8+CD45.1+ OT-I cells,~37%
B1,Hydrodynamic diameter (nm),"[2]; DLS at 25° C in PBS, mixtures: OVA 25 μg, 1:3 molar ratio protein to lipopeptide",199.5 ± 42.6 nm
same,% Pd (polydispersity),"[2]; DLS at 25° C, <20% is considered monodispersed",27.1 ± 11.5%
same,particle size of sample alone,[2]; OVA or lipopeptide alone,157-242 nm
